# Laboratory results taken from the Human Domainome abundance scans (Beltran et al. 2025).
# ± gives the uncertainty stated by the source.
# B1: SAM and SH3 domain-containing protein 1, residues 630 to 700; numbered along this chain, O94885 (parent)
# chain: GRPPQPKSVEDLLDRINLKEHMPTFLFNGYEDLDTFKLLEEEDLDELNIRDPEHRAVLLTAVELLQEYDSN
# Variants of: B1
# Assay: abundance fitness (aPCA) (normalised: wild type 0, dead -1); higher = more abundant; growth selection in yeast, the domain comes from the species named
# Settings: Homo sapiens
row,Variant,abundance fitness
1,GRPPQPKSVEDLLDRINLKEHMPTFLFNGYEDLDTWKLLEEEDLDELNIRDPEHRAVLLTAVELLQEYDSN [F36W],-0.712 ± 0.089
2,GRPPQPKSVEDLLDRINLKEHMPTFLFNGYEDLDTSKLLEEEDLDELNIRDPEHRAVLLTAVELLQEYDSN [F36S],-0.749 ± 0.06
3,GRPPQPKSVEDLLDRINLKEHMPTFLFNGYEDLDTVKLLEEEDLDELNIRDPEHRAVLLTAVELLQEYDSN [F36V],-0.495 ± 0.051
4,GRPPQPKSVEDLLDRINLKEHMPTFLFNGYEDLDTYKLLEEEDLDELNIRDPEHRAVLLTAVELLQEYDSN [F36Y],-0.878 ± 0.095
5,GRPPQPKSVEDLLDRINLKEHMPTFLFNGYEDLDTTKLLEEEDLDELNIRDPEHRAVLLTAVELLQEYDSN [F36T],-0.64 ± 0.064
6,GRPPQPKSVEDLLDRINLKEHMPTFLFNGYEDLDTFKFLEEEDLDELNIRDPEHRAVLLTAVELLQEYDSN [L38F],-0.234 ± 0.059
7,GRPPQPKSVEDLLDRINLKEHMPTFLFNGYEDLDTFKDLEEEDLDELNIRDPEHRAVLLTAVELLQEYDSN [L38D],-0.175 ± 0.053
8,GRPPQPKSVEDLLDRINLKEHMPTFLFNGYEDLDTFKELEEEDLDELNIRDPEHRAVLLTAVELLQEYDSN [L38E],0.03 ± 0.051
9,GRPPQPKSVEDLLDRINLKEHMPTFLFNGYEDLDTFKSLEEEDLDELNIRDPEHRAVLLTAVELLQEYDSN [L38S],-0.005 ± 0.036
10,GRPPQPKSVEDLLDRINLKEHMPTFLFNGYEDLDTFKQLEEEDLDELNIRDPEHRAVLLTAVELLQEYDSN [L38Q],0.175 ± 0.044
11,GRPPQPKSVEDLLDRINLKEHMPTFLFNGYEDLDTFKILEEEDLDELNIRDPEHRAVLLTAVELLQEYDSN [L38I],-0.76 ± 0.096
12,GRPPQPKSVEDLLDRINLKEHMPTFLFNGYEDLDTFKNLEEEDLDELNIRDPEHRAVLLTAVELLQEYDSN [L38N],0.054 ± 0.053
13,GRPPQPKSVEDLLDRINLKEHMPTFLFNGYEDLDTFKHLEEEDLDELNIRDPEHRAVLLTAVELLQEYDSN [L38H],0.029 ± 0.05
14,GRPPQPKSVEDLLDRINLKEHMPTFLFNGYEDLDTFKALEEEDLDELNIRDPEHRAVLLTAVELLQEYDSN [L38A],-0.063 ± 0.04
15,GRPPQPKSVEDLLDRINLKEHMPTFLFNGYEDLDTFKTLEEEDLDELNIRDPEHRAVLLTAVELLQEYDSN [L38T],0.23 ± 0.041
16,GRPPQPKSVEDLLDRINLKEHMPTFLFNGYEDLDTFKKLEEEDLDELNIRDPEHRAVLLTAVELLQEYDSN [L38K],0.117 ± 0.053
17,GRPPQPKSVEDLLDRINLKEHMPTFLFNGYEDLDTFKVLEEEDLDELNIRDPEHRAVLLTAVELLQEYDSN [L38V],-0.492 ± 0.046
18,GRPPQPKSVEDLLDRINLKEHMPTFLFNGYEDLDTFKYLEEEDLDELNIRDPEHRAVLLTAVELLQEYDSN [L38Y],-0.117 ± 0.056
19,GRPPQPKSVEDLLDRINLKEHMPTFLFNGYEDLDTFKPLEEEDLDELNIRDPEHRAVLLTAVELLQEYDSN [L38P],-0.857 ± 0.081

row,Variant,abundance fitness
1,GRPPQPKSVEDLLDRINLKEHMPTFLFNGYEDLDTFKRLEEEDLDELNIRDPEHRAVLLTAVELLQEYDSN [L38R],-0.041 ± 0.037
2,GRPPQPKSVEDLLDRINLKEHMPTFLFNGYEDLDTFKGLEEEDLDELNIRDPEHRAVLLTAVELLQEYDSN [L38G],-0.061 ± 0.038
3,GRPPQPKSVEDLLDRINLKEHMPTFLFNGYEDLDTFKMLEEEDLDELNIRDPEHRAVLLTAVELLQEYDSN [L38M],-0.011 ± 0.05
4,GRPPQPKSVEDLLDRINLKEHMPTFLFNGYEDLDTFDLLEEEDLDELNIRDPEHRAVLLTAVELLQEYDSN [K37D],-0.791 ± 0.1
5,GRPPQPKSVEDLLDRINLKEHMPTFLFNGYEDLDTFRLLEEEDLDELNIRDPEHRAVLLTAVELLQEYDSN [K37R],-0.211 ± 0.046
6,GRPPQPKSVEDLLDRINLKEHMPTFLFNGYEDLDTFMLLEEEDLDELNIRDPEHRAVLLTAVELLQEYDSN [K37M],-0.16 ± 0.057
7,GRPPQPKSVEDLLDRINLKEHMPTFLFNGYEDLDTFFLLEEEDLDELNIRDPEHRAVLLTAVELLQEYDSN [K37F],-0.946 ± 0.11
8,GRPPQPKSVEDLLDRINLKEHMPTFLFNGYEDLDTFQLLEEEDLDELNIRDPEHRAVLLTAVELLQEYDSN [K37Q],-0.478 ± 0.073
9,GRPPQPKSVEDLLDRINLKEHMPTFLFNGYEDLDTFALLEEEDLDELNIRDPEHRAVLLTAVELLQEYDSN [K37A],-0.226 ± 0.047
10,GRPPQPKSVEDLLDRINLKEHMPTFLFNGYEDLDTFLLLEEEDLDELNIRDPEHRAVLLTAVELLQEYDSN [K37L],-0.555 ± 0.053
11,GRPPQPKSVEDLLDRINLKEHMPTFLFNGYEDLDTFCLLEEEDLDELNIRDPEHRAVLLTAVELLQEYDSN [K37C],-0.449 ± 0.072
12,GRPPQPKSVEDLLDRINLKEHMPTFLFNGYEDLDTFNLLEEEDLDELNIRDPEHRAVLLTAVELLQEYDSN [K37N],-0.799 ± 0.074
13,GRPPQPKSVEDLLDRINLKEHMPTFLFNGYEDLDTFTLLEEEDLDELNIRDPEHRAVLLTAVELLQEYDSN [K37T],-0.615 ± 0.062
14,GRPPQPKSVEDLLDRINLKEHMPTFLFNGYEDLDTFHLLEEEDLDELNIRDPEHRAVLLTAVELLQEYDSN [K37H],-0.76 ± 0.086
15,GRPPQPKSVEDLLDRINLKEHMPTFLFNGYEDLDTFILLEEEDLDELNIRDPEHRAVLLTAVELLQEYDSN [K37I],-0.848 ± 0.093
16,GRPPQPKSVEDLLDRINLKEHMPTFLFNGYEDLDTFYLLEEEDLDELNIRDPEHRAVLLTAVELLQEYDSN [K37Y],-1.11 ± 0.12
17,GRPPQPKSVEDLLDRINLKEHMPTFLFNGYEDLDTFSLLEEEDLDELNIRDPEHRAVLLTAVELLQEYDSN [K37S],-0.337 ± 0.045
18,GRPPQPKSVEDLLDRINLKEHMPTFLFNGYEDLDTFELLEEEDLDELNIRDPEHRAVLLTAVELLQEYDSN [K37E],-0.64 ± 0.097
19,GRPPQPKSVEDLLDRINLKEHMPTFLFNGYEDLDTFGLLEEEDLDELNIRDPEHRAVLLTAVELLQEYDSN [K37G],-0.669 ± 0.073
